Data published in article PMC3328272, “HIV-1 Nef interaction influences the ATP-binding site of the Src-family kinase, Hck” (BMC Chemical Biology, 2012).

Experiments:
[1] = target: mouse Hck SH3 domain with High Affinity RT loop (HART) (mouse) (UniProt P08103); assay: SPR
[2] = target: wild-type human Hck SH3 domain (human) (UniProt P08631); assay: SPR
[3] = target: wild-type mouse Hck SH3 domain (mouse) (UniProt P08103); assay: SPR
[4] = target: mouse Hck SH3 domain with High Affinity RT loop (HART) (mouse) (UniProt P08103); assay: HDX-MS; SH3 (50 uM) and Nef-Consensus (117 uM) equilibrated at 4 C for at least 110 min in 20 mM Tris-HCl pH 8.3, 100 mM NaCl, 3 mM DTT; 15-fold dilution into D2O buffer; intact-protein MS; SH3 cooperative unfolding rate free and with Nef (slowdown factor)
[5] = target: wild-type mouse Hck SH3 domain (mouse) (UniProt P08103); assay: as above

wild-type mouse Hck SH3 domain (mouse), sequence (P08103 76-136): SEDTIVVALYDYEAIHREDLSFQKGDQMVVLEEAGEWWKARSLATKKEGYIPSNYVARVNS
wild-type human Hck SH3 domain (human), sequence (P08631 78-138): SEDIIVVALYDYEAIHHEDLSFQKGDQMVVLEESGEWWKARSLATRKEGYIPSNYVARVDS
HIV-1 Nef-SF2, untagged, sequence (P03407 whole entry): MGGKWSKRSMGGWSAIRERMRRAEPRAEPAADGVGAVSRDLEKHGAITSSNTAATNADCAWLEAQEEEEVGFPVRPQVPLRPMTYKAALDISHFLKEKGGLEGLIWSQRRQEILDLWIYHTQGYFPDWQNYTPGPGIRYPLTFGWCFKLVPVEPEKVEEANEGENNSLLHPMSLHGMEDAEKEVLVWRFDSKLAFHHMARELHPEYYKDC

What does the source list for HIV-1 Nef-Consensus, untagged?
Kd [1]: 0.02 µM; koff [1]: 0.0324 s⁻¹; kon [1]: 1.57e+06 M⁻¹ s⁻¹; Kd [2]: 0.12 µM; koff [2]: 0.118 s⁻¹; kon [2]: 1e+06 M⁻¹ s⁻¹; Kd [3]: 0.08 µM; koff [3]: 0.0185 s⁻¹; kon [3]: 241000 M⁻¹ s⁻¹; fold decrease in SH3 unfolding rate with Nef (slowdown factor) [4]: 50 fold; fold decrease in SH3 unfolding rate with Nef (slowdown factor) [5]: 5.7 fold

What does the source list for “HIV-1 Nef-SF2, untagged (from UniProt P03407) (natural protein)”?
Kd [1]: 0.01 µM; koff [1]: 0.0143 s⁻¹; kon [1]: 1.42e+06 M⁻¹ s⁻¹
